Measurements from the supplement of paper PMC7877785.
± gives the uncertainty stated by the source.

Test: self-splicing fitness, log relative to wild type (ln ratio); higher = more splicing; Tetrahymena group I intron in knt gene, E. coli kanamycin selection, DiMSum; sequences stand for … in CUCUCU…GGAGGGAAAAGUUAUCAGGCAUGCACCUGGUAGCUAGUCUUUAAACCAAUAGAUUGCAUCGGUUUAAAAGGCAAGACCGUCAAAUUGCGGGAAAGGGGUCAACAGCCGUUCAGUACCAAGUCUCAGGGGAAACUUUGAGAUGGCCUUGCAAAGGGUAUGGUAAUAAGCUGACGGACAUGGUCCUAACCACGCAGCCAAGUCCUAAGUCAACAGAUCUUCUGUUGAUAUGGAUGCAGUUCACAGACUAAAUGUCGGUCGGGGAAGAUGUAUUCUUCUCAUAAGAUAUAGUCGGACCUCUCCUUAAUGGGAGCUAGCGGAUGAAGUGAUGCAACACUGGAGCCGCUGGGAACUAAUUUGUAUGCGAAAGUAUAUUGAUUAGUUUUGGAGUACUCGUGGUCG
Method in brief: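 Fitness was computed with DiMSum as the error-weighted combination of replicate fold changes, kanamycin versus none, each normalised to wild type. The library randomised all eight intron nucleotides of the P1ex region, with the intron placed in the knt kanamycin-resistance gene on pET-22b(+) in E. coli BL21(DE3). Six replicate transformations were grown overnight at 37°C or 30°C on LB agar with or without 25 μg/mL kanamycin, plus 100 μg/mL carbenicillin, 50 μM IPTG and 0.2% rhamnose. Pooled colonies were amplicon-sequenced on an Illumina HiSeq 2500.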

| Sequence | self-splicing fitness (ln) (30 °C) | self-splicing fitness (ln) (37 °C) |
| --- | --- | --- |
| UUUCAGCAAUAUUACGGACC | -1.2 ± 0.4 | – |
| UUUCAGCAAUAUUACGGAGG | -1.53 ± 0.17 | -0.401 ± 0.18 |
| UUUCAGCAAUAUUACGGCCU | -3.87 ± 0.47 | -1.33 ± 0.25 |
| UUUCAGCAAUAUUACGGGCA | -0.321 ± 0.076 | -0.0917 ± 0.085 |
| UUUCAGCAAUAUUACGGUCA | 0.101 ± 0.12 | 0.222 ± 0.13 |
| UUUCAGCAAUAUUACGGUGG | -1.94 ± 0.067 | -0.673 ± 0.075 |
| UUUCAGCAAUAUUACGGUUC | -1.67 ± 0.17 | -1.82 ± 0.27 |
| UUUCAGCAAUAUUACGUGAU | -2.58 ± 0.13 | -1.8 ± 0.18 |
| UUUCAGCAAUAUUACGUGGA | -3.32 ± 0.22 | -2.3 ± 0.35 |
| UUUCAGCAAUAUUACGUUAU | -2.94 ± 0.2 | -1.47 ± 0.14 |
| UUUCAGCAAUAUUACGUUGC | -4.04 ± 0.29 | -2.5 ± 0.24 |
| UUUGAGCAAUAUUACGACAA | -1.26 ± 0.16 | -0.94 ± 0.17 |
| UUUGAGCAAUAUUACGACCU | -2.7 ± 0.26 | -1.02 ± 0.34 |
| UUUGAGCAAUAUUACGAGUG | -3.74 ± 0.18 | -2.88 ± 0.2 |
| UUUGAGCAAUAUUACGAUGC | – | -1.81 ± 0.4 |
| UUUGAGCAAUAUUACGCAUC | -3.03 ± 0.28 | -2.39 ± 0.38 |
| UUUGAGCAAUAUUACGCCAG | -2.78 ± 0.36 | -2.12 ± 0.47 |
| UUUGAGCAAUAUUACGCGGA | -3.43 ± 0.35 | -1.28 ± 0.17 |
| UUUGAGCAAUAUUACGGAGA | – | 1.09 ± 0.29 |
| UUUGAGCAAUAUUACGGAGG | -3.18 ± 0.32 | -2.33 ± 0.46 |
| UUUGAGCAAUAUUACGGCGU | -3.7 ± 0.26 | -1.9 ± 0.2 |

| Sequence | self-splicing fitness (ln) (30 °C) | self-splicing fitness (ln) (37 °C) |
| --- | --- | --- |
| UUUGAGCAAUAUUACGGGAC | -3.43 ± 0.34 | -2.12 ± 0.27 |
| UUUGAGCAAUAUUACGGGGG | -1.96 ± 0.38 | – |
| UUUGAGCAAUAUUACGGGUA | -2.8 ± 0.46 | – |
| UUUGAGCAAUAUUACGGGUG | -4.1 ± 0.3 | -2.22 ± 0.21 |
| UUUGAGCAAUAUUACGUAGA | -1.7 ± 0.22 | -0.802 ± 0.24 |
| UUUGAGCAAUAUUACGUCCC | -2.9 ± 0.22 | -2.15 ± 0.33 |
| UUUGAGCAAUAUUACGUCUC | -3.52 ± 0.29 | -2.7 ± 0.33 |
| UUUGAGCAAUAUUACGUGAG | -1.35 ± 0.11 | 0.29 ± 0.14 |
| UUUGAGCAAUAUUACGUGCG | – | -1.29 ± 0.25 |
| UUUGAGCAAUAUUACGUGUA | -3.76 ± 0.35 | -2.78 ± 0.28 |
| UUUGAGCAAUAUUACGUUGC | -2.68 ± 0.34 | -2.29 ± 0.36 |
| UUUUAGCAAUAUUACGAAAC | – | -2.4 ± 0.49 |
| UUUUAGCAAUAUUACGAACA | – | -0.949 ± 0.48 |
| UUUUAGCAAUAUUACGAAUG | -1.04 ± 0.077 | -0.0853 ± 0.096 |
| UUUUAGCAAUAUUACGACCU | – | -1.36 ± 0.44 |
| UUUUAGCAAUAUUACGACGC | -2.17 ± 0.31 | -1.56 ± 0.28 |
| UUUUAGCAAUAUUACGAGAU | – | -1.25 ± 0.4 |
| UUUUAGCAAUAUUACGAUGA | 0.0426 ± 0.16 | -0.186 ± 0.2 |
| UUUUAGCAAUAUUACGAUGG | -1.32 ± 0.19 | -1.22 ± 0.2 |
| UUUUAGCAAUAUUACGCAAG | -1.08 ± 0.15 | -1.14 ± 0.21 |
